Source: the MegaScale stability set (Tsuboyama et al. 2023)

B1: EHEE_rd2_0191 (parent)
chain: TTEYTFTDDEEARRAIEELKKRGLTFRYEKHGTTWRVRVD
B2: EHEE_rd4_0726 (parent)
chain: DIEITTNGEEDAKRVIKELQKRNLEYHIEVHGNQWVIKVR

Variants of: B1
Assay: folding stability dG (cDNA display proteolysis); higher = more stable
Details: PBS, room temperature

Folding stability dG [kcal/mol], by site and new letter:
W35: T 1.49 | L 0.943 | Y 1.21 | C 1.77 | A -0.575 | R -0.576 | M 0.84 | V 1.44 | N -0.839 | S 0.309 | H 1.59 | F 0.889 | I 2.15
D40: L 2.78 | C 3.04 | K 1.9 | N 2.04 | S 2.17 | M 2.68 | Q 2.19 | F 3.35 | E 2.31 | P 1.86 | V 2.54 | Y 3.29 | W 3.19 | A 2.04 | I 2.83 | H 2.19 | G 2.1 | R 1.95 | T 2.38
G32: Y 0.194 | W -0.3
R36: S 1.67 | I 3.33 | K 2.35 | G -0.707 | E 1.34 | H 2.44 | T 2.57 | N 1.43 | A 1.19 | D 0.362 | Q 1.54 | L 2.71 | Y 3.28 | F 3.02 | C 2.39 | W 2.7 | M 2.08 | V 3.08
T33: K 2.01 | R 1.8 | D 2.54 | A 1.93 | Y 1.7 | G 2.46 | E 2.14 | H 2.01 | P 1.79 | W 1.13 | V 1.71 | F 1.9 | M 1.9 | L 1.91 | S 2.19 | Q 2.03 | N 2.55 | I 1.84
V37: L 1.76 | P -0.51 | C 0.419 | M 0.361 | F 1.88 | I 2.67
T34: K 1.48 | R 1.54 | F 2.15 | D 1.03 | M 2.08 | Q 1.78 | A 1.48 | Y 2.05 | H 1.74 | V 2.42 | N 1.48 | G 1.56 | I 2.48 | W 1.75 | E 2.07 | L 2.33 | C 2.51 | S 1.53
R38: M 2.81 | T 2.95 | Y 3.62 | K 2.06 | D 1.11 | G 0.594 | V 3.23 | W 4.04 | F 3.61 | E 2.35 | N 1.71 | S 2.49 | H 2.28 | Q 2.47 | L 2.95 | A 1.89 | I 3.6
V39: F 1.24 | L 1.6 | W 0.937 | P -0.946 | M 1.02 | A 0.227 | H -0.386 | Q -0.645 | E -0.709 | I 2.02 | Y 0.601 | T 0.562 | S -0.316

Variants of: B2
Assay: as above
Details: PBS, room temperature

Folding stability dG [kcal/mol] of substitutions, site by site:
I2: C 2.82 | V 2.15 | L 2.52 | A 1.53 | P 1.06 | K 1.58 | D 1.41 | H 2.06 | W 3.69 | R 1.97 | M 2.43 | T 1.91 | Q 1.69 | N 1.49 | Y 3.27 | E 1.54 | G 1.4 | S 1.65 | F 3.22
E3: G 1.25 | H 2.31 | D 1.78 | A 2.16 | F 2.93
D1: C 2.75 | L 2.76 | I 2.87 | Q 2.36 | G 2.43 | W 4.08 | P 2.29 | A 2.34 | R 2.24 | M 2.87 | E 2.59 | F 3.31 | S 2.39 | Y 3.38 | K 1.97 | V 2.77 | H 2.48 | N 2.37 | T 2.63
